Source: US20030088057

Columns and labels:
histone 2B = histone 2B (UniProt P62808)
histone 4 = histone 4 (UniProt P62803)
myelin basic protein = myelin basic protein (UniProt P02687)
rat prolactin = rat prolactin (UniProt P01237)
rat prolactin, sequence (P01237 30-226): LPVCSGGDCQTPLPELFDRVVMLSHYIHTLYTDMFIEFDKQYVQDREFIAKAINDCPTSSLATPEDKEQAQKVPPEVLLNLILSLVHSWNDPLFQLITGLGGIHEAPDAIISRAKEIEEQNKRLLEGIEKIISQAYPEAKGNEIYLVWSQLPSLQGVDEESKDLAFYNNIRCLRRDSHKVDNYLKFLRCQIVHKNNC

myelin basic protein, sequence (P02687 whole entry): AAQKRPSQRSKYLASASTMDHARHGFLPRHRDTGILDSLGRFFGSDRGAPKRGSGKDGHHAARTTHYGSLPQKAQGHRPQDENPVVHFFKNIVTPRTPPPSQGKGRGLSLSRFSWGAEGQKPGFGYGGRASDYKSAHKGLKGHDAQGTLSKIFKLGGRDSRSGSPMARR

Protein kinase C purified from bovine brain
32P incorporated (AAAASKR): 13.3 pmol/unit
32P incorporated, % (AKRASAA = 100) (AAAASKR): 403%
32P incorporated (AKRASAA): 3 pmol/unit
32P incorporated, % (AKRASAA = 100) (AKRASAA): 100%
32P incorporated (AKRASEA): 0.2 pmol/unit
32P incorporated, % (AKRASAA = 100) (AKRASEA): 6%
32P incorporated (AKRESAA): 0.4 pmol/unit
32P incorporated, % (AKRASAA = 100) (AKRESAA): 12%
32P incorporated (AKRPSAA): 3.9 pmol/unit
32P incorporated, % (AKRASAA = 100) (AKRPSAA): 118%
32P incorporated (ARKASAA): 5.7 pmol/unit
32P incorporated, % (AKRASAA = 100) (ARKASAA): 173%
32P incorporated (ARRASAA): 18.8 pmol/unit
32P incorporated, % (AKRASAA = 100) (ARRASAA): 570%
32P incorporated (EKRASAA): 0.1 pmol/unit
32P incorporated, % (AKRASAA = 100) (EKRASAA): 3%
32P incorporated (KKRKSAA): 11.1 pmol/unit
32P incorporated, % (AKRASAA = 100) (KKRKSAA): 370%
32P incorporated (PKRASAA): 8.7 pmol/unit
32P incorporated, % (AKRASAA = 100) (PKRASAA): 264%
32P incorporated (RKKKSAA): 3.1 pmol/unit
32P incorporated, % (AKRASAA = 100) (RKKKSAA): 94%

active γ-PAK (mode of activation not stated for this experiment)
32P incorporated (AAAASKR): 0 pmol/unit
32P incorporated, % (AKRASAA = 100) (AAAASKR): 0%
Km (AARASAA): 1880 µM
Vmax (AARASAA): 2.27 pmol/min
Vmax/Km (pmol min^-1 mM^-1) (AARASAA): 1.2
Km (AKAASAA): > 5000 µM
32P incorporated (AKRASAA): 26.8 pmol/unit
32P incorporated, % (AKRASAA = 100) (AKRASAA): 100%
Km (AKRASAA): 460 µM
Vmax/Km (pmol min^-1 mM^-1) (AKRASAA): 2.2
32P incorporated (AKRASEA): 18.3 pmol/unit
32P incorporated, % (AKRASAA = 100) (AKRASEA): 68%
Km (AKRASEA): 1420 µM
Km relative to AKRASAA (AKRASEA): Glutamate in the -1 or +1 position increased the Km by ˜3-fold
Vmax (AKRASEA): 2.22 pmol/min
Vmax relative to AKRASAA (AKRASEA): >2-fold increase in the Vmax when glutamate was in the -4 or +1 position
Vmax/Km (pmol min^-1 mM^-1) (AKRASEA): 1.6
Vmax/Km relative to AKRASAA (AKRASEA): 0.7-fold when glutamate was in the +1 position of AKRASEA
Km (AKRASGA): 2090 µM
Km relative to AKRASAA (AKRASGA): increased the Km by 4-fold and the Vmax by 3-fold
Vmax (AKRASGA): 3.49 pmol/min
Vmax relative to AKRASAA (AKRASGA): increased the Km by 4-fold and the Vmax by 3-fold
Vmax/Km (pmol min^-1 mM^-1) (AKRASGA): 1.7
Km (AKRASPA): > 5000 µM
32P incorporated (AKRESAA): 47.2 pmol/unit
32P incorporated, % (AKRASAA = 100) (AKRESAA): 176%
Km (AKRESAA): 1350 µM
Km relative to AKRASAA (AKRESAA): Glutamate in the -1 or +1 position increased the Km by ˜3-fold
Vmax (AKRESAA): 6.62 pmol/min
Vmax relative to AKRASAA (AKRESAA): 6-fold higher than with AKRASAA
Vmax/Km (pmol min^-1 mM^-1) (AKRESAA): 4.9
Vmax/Km relative to AKRASAA (AKRESAA): an increase in the overall rate (Vmax/Km) of ˜2.2-fold
Km (AKRGSAA): 3520 µM
Km relative to AKRASAA (AKRGSAA): increased the Km by 7-fold over that of the peptide containing alanine at that position
Vmax (AKRGSAA): 6.44 pmol/min
Vmax relative to AKRASAA (AKRGSAA): the Vmax was increased by 6-fold
Vmax/Km (pmol min^-1 mM^-1) (AKRGSAA): 1.8
Km (AKRKSAA): 480 µM
Vmax (AKRKSAA): 2.34 pmol/min
Vmax/Km (pmol min^-1 mM^-1) (AKRKSAA): 4.8
Vmax/Km relative to AKRASAA (AKRKSAA): ˜2 fold higher than that of AKRASAA
32P incorporated (AKRPSAA): 1.2 pmol/unit
32P incorporated, % (AKRASAA = 100) (AKRPSAA): 5%
Km (AKRPSAA): > 5000 µM
rate of phosphorylation relative to ARRASVA (ARAASVA): phosphorylated at a slower rate (40%) compared to ARRASVA (SEQ ID NO:17) (100%)
32P incorporated (ARKASAA): 0.9 pmol/unit
32P incorporated, % (AKRASAA = 100) (ARKASAA): 3%
Km (ARKASAA): > 5000 µM
32P incorporated (ARRASAA): 25 pmol/unit
32P incorporated, % (AKRASAA = 100) (ARRASAA): 93%
Km (ARRASAA): 650 µM
Vmax (ARRASAA): 2.11 pmol/min
Vmax/Km (pmol min^-1 mM^-1) (ARRASAA): 3.2
rate of phosphorylation (reference) (ARRASVA): ARRASVA (SEQ ID NO:17) (100%)
32P incorporated (EKRASAA): 30.2 pmol/unit
32P incorporated, % (AKRASAA = 100) (EKRASAA): 113%
Km (EKRASAA): 890 µM
Km relative to AKRASAA (EKRASAA): the Km was increased by 2-fold when glutamate was in the -4 position
Vmax (EKRASAA): 2.48 pmol/min
Vmax relative to AKRASAA (EKRASAA): >2-fold increase in the Vmax when glutamate was in the -4 or +1 position
Vmax/Km (pmol min^-1 mM^-1) (EKRASAA): 2.8
Vmax/Km relative to AKRASAA (EKRASAA): 1.3-fold with glutamate in the -4 position
Km (KKRASAA): 370 µM
Vmax (KKRASAA): 1.59 pmol/min
Vmax/Km (pmol min^-1 mM^-1) (KKRASAA): 4.3
Vmax/Km relative to AKRASAA (KKRASAA): ˜2 fold higher than that of AKRASAA
32P incorporated (KKRKSAA): 19.2 pmol/unit
32P incorporated, % (AKRASAA = 100) (KKRKSAA): 72%
Km (KKRKSAA): 610 µM
Vmax (KKRKSAA): 1.84 pmol/min
Vmax/Km (pmol min^-1 mM^-1) (KKRKSAA): 3
32P incorporated (PKRASAA): 40.5 pmol/unit
32P incorporated, % (AKRASAA = 100) (PKRASAA): 151%
Km (PKRASAA): 240 µM
Km relative to AKRASAA (PKRASAA): decreased the Km by ≈2-fold as compared to AKRASAA
Vmax (PKRASAA): 1.1 pmol/min
Vmax/Km (pmol min^-1 mM^-1) (PKRASAA): 4.6
phosphorylation rate (Vmax/Km) relative to AKRASAA (PKRASAA): an overall effect of a 2-fold increase in the phosphorylation rate
32P incorporated (RKKKSAA): 0.1 pmol/unit
32P incorporated, % (AKRASAA = 100) (RKKKSAA): 0%
substrate or not (casein): Proteins that are not substrates for γ-PAK, such as casein, histone 1, cdc42, and rac1 (data not shown)
substrate or not (cdc42): Proteins that are not substrates for γ-PAK, such as casein, histone 1, cdc42, and rac1 (data not shown)
32P incorporated (histone 1): 0 pmol
rel rate (%) (histone 2B = 100) (histone 1): 0%
32P incorporated (histone 2B): 11 pmol
rel rate (%) (histone 2B = 100) (histone 2B): 100%
32P incorporated (histone 4): 8.3 pmol
rel rate (%) (histone 2B = 100) (histone 4): 74%
32P incorporated (myelin basic protein): 4.2 pmol
rel rate (%) (histone 2B = 100) (myelin basic protein): 37%
32P incorporated (protamine): 0 pmol
rel rate (%) (histone 2B = 100) (protamine): 0%
substrate or not (rac1): Proteins that are not substrates for γ-PAK, such as casein, histone 1, cdc42, and rac1 (data not shown)
32P incorporated (rat prolactin): 1.8 pmol
rel rate (%) (histone 2B = 100) (rat prolactin): 17%

γ-PAK activated by limited digestion with trypsin
32P incorporated, proteolytically activated (pmol min^-1 µg^-1) (AAAASKR): 0
rel rate (%), proteolytically activated (KKRKSAA = 100) (AAAASKR): 0%
32P incorporated, proteolytically activated (pmol min^-1 µg^-1) (AAKKSAA): 0
rel rate (%), proteolytically activated (KKRKSAA = 100) (AAKKSAA): 0%
32P incorporated, proteolytically activated (pmol min^-1 µg^-1) (AAKRSAA): 0
rel rate (%), proteolytically activated (KKRKSAA = 100) (AAKRSAA): 0%
32P incorporated, proteolytically activated (pmol min^-1 µg^-1) (AARASAA): 169
rate of phosphorylation relative to AKRASAA (AARASAA): significantly slower rate (40 and 56%) as compared to AKRASAA (SEQ ID NO:6) and KKRKSAA (SEQ ID NO:8), respectively
rel rate (%), proteolytically activated (KKRKSAA = 100) (AARASAA): 56%
32P incorporated, proteolytically activated (pmol min^-1 µg^-1) (AKAASAA): 5
rel rate (%), proteolytically activated (KKRKSAA = 100) (AKAASAA): 2%
32P incorporated, proteolytically activated (pmol min^-1 µg^-1) (AKRASAA): 426
rel rate (%), proteolytically activated (KKRKSAA = 100) (AKRASAA): 141%
32P incorporated, proteolytically activated (pmol min^-1 µg^-1) (AKRASEA): 326
rate of phosphorylation relative to AKRASAA (AKRASEA): a glutamate residue in the +1 position decreased the rate to 71%
rel rate (%), proteolytically activated (KKRKSAA = 100) (AKRASEA): 108%
32P incorporated, proteolytically activated (pmol min^-1 µg^-1) (AKRASGA): 324
rel rate (%), proteolytically activated (KKRKSAA = 100) (AKRASGA): 107%
32P incorporated, proteolytically activated (pmol min^-1 µg^-1) (AKRASPA): 0
rel rate (%), proteolytically activated (KKRKSAA = 100) (AKRASPA): 0%
32P incorporated, proteolytically activated (pmol min^-1 µg^-1) (AKRESAA): 750
rate of phosphorylation relative to AKRASAA (AKRESAA): increased the rate of phosphorylation relative to AKRASAA (SEQ ID NO:6) to 175 and 113%, respectively
rel rate (%), proteolytically activated (KKRKSAA = 100) (AKRESAA): 247%
32P incorporated, proteolytically activated (pmol min^-1 µg^-1) (AKRGSAA): 381
rel rate (%), proteolytically activated (KKRKSAA = 100) (AKRGSAA): 126%
32P incorporated, proteolytically activated (pmol min^-1 µg^-1) (AKRKSAA): 548
rel rate (%), proteolytically activated (KKRKSAA = 100) (AKRKSAA): 181%
32P incorporated, proteolytically activated (pmol min^-1 µg^-1) (AKRPSAA): 16
rel rate (%), proteolytically activated (KKRKSAA = 100) (AKRPSAA): 6%
32P incorporated, proteolytically activated (pmol min^-1 µg^-1) (ARKASAA): 16
rel rate (%), proteolytically activated (KKRKSAA = 100) (ARKASAA): 6%
32P incorporated, proteolytically activated (pmol min^-1 µg^-1) (ARRASAA): 391
rel rate (%), proteolytically activated (KKRKSAA = 100) (ARRASAA): 129%
32P incorporated, proteolytically activated (pmol min^-1 µg^-1) (EKRASAA): 484
rate of phosphorylation relative to AKRASAA (EKRASAA): increased the rate of phosphorylation relative to AKRASAA (SEQ ID NO:6) to 175 and 113%, respectively
rel rate (%), proteolytically activated (KKRKSAA = 100) (EKRASAA): 160%
32P incorporated, proteolytically activated (pmol min^-1 µg^-1) (KKAASAA): 0
rel rate (%), proteolytically activated (KKRKSAA = 100) (KKAASAA): 0%
32P incorporated, proteolytically activated (pmol min^-1 µg^-1) (KKRASAA): 586
rel rate (%), proteolytically activated (KKRKSAA = 100) (KKRASAA): 193%
32P incorporated, proteolytically activated (pmol min^-1 µg^-1) (KKRKSAA): 302
rel rate (%), proteolytically activated (KKRKSAA = 100) (KKRKSAA): 100%
32P incorporated, proteolytically activated (pmol min^-1 µg^-1) (PKRASAA): 636
rel rate (%), proteolytically activated (KKRKSAA = 100) (PKRASAA): 209%
32P incorporated, proteolytically activated (pmol min^-1 µg^-1) (RKKKSAA): 0
rel rate (%), proteolytically activated (KKRKSAA = 100) (RKKKSAA): 0%
